This note sets out measurements from article PMC2900545.

Substrate in this data set: CCc1c2c(nc3ccc(O)cc13)-c1cc3c(c(=O)n1C2)COC(=O)[C@]3(O)CC
Kind of data set: purified protein. The settings on record: UDPGA.

B1: UGT1A1 (Homo sapiens) (protein)
chain: HAGKILLIPVDGSHWLSMLGAIQQLQQRGHEIVVLAPDASLYIRDGAFYTLKTYPVPFQREDVKESFVSLGHNVFENDSFLQRVIKTYKKIKKDSAMLLSGCSHLLHNKELMASLAESSFDVMLTDPFLPCSPIVAQYLSLPTVFFLHALPCSLEFEATQCPNPFSYVPRPLSSHSDHMTFLQRVKNMLIAFSQNFLCDVVYSPYATLASEFLQREVTVQDLLSSASVWLFRSDFVKDYPRPIMPNMVFVGGINCLHQNPLSQEFEAYINASGEHGIVVFSLGSMVSEIPEKKAMAIADALGKIPQTVLWRYTGTRPSNLANNTILVKWLPQNDLLGHPMTRAFITHAGSHGVYESICNGVPMVMMPLFGDQMDNAKRMETKGAGVTLNVLEMTSEDLENALKAVINDKSYKENIMRLSSLHKDRPVEPLDLAVFWVEFVMRHKGAPHLRPAAHDLTWYQYHSLDVIGFLLAVVLTVAFITFKCCAYGYRKCLGKKGRVKKAHKSKTH
In general, Km refers to the concentration of substrate that gives half-maximal velocity. B1: the Km stood at 2.5 ± 0.3 µM.
